From publication PMC7901023

Molecular target: FOXA1-ΔHx (UniProt P35582)
Experiment: pull-down

pull-down relative to wild-type FOXA1 (fraction of wild type): 0.33
Substance: H3/H4 tetramers (from UniProt P84233;P62799) (complex)
